In PMC11524583, “Neurons enhance blood–brain barrier function via upregulating claudin-5 and VE-cadherin expression due to glial cell line-derived neurotrophic factor secretion” (eLife, 2024):
Values joined by “and” are separate entries in the source; they are usually repeats but may differ in a detail not shown here. Equal values may be shown once.

Assays:
p-p38/p38 = test: Western blot of p-p38/p38 in hCMEC/D3 cells; assay type: cell-based, Homo sapiens; conditions: relative to Con (mean 1.000), Figure 3D
Procedure: (§1) Whole-cell and tissue lysates, nucleoprotein, and cytoplasmic protein were prepared using RIPA Lysis Buffer (Beyotime, Shanghai, China) as the described method ([Wu et al., 2021]). Proteins were separated through sodium dodecyl sulfate–polyacrylamide gel electrophoresis and transferred onto nitrocellulose or polyvinylidene difluoride membranes. The membranes were blocked with 5% skim milk and incubated with corresponding primary antibodies at 4°C overnight. After being washed with Tris-buffered saline Tween buffer, the membranes were incubated with secondary antibodies (Cell Signaling Technology, MA, USA) at 1:3000 dilution: Anti-mouse IgG, HRP-linked Antibody (#7076), Anti-rabbit IgG, HRP-linked Antibody (#7074). Protein levels were visualized using a highly sensitive ECL western blotting substrate and a gel imaging system (Tanon Science & Technology, Shanghai, China).

VE-cadherin = test: Western blot of VE-cadherin in primary rat brain microvascular endothelial cells; assay type: cell-based; conditions: primary rat BMECs, 200 pg/ml GDNF or US-CM
Procedure: Then, hCMEC/D3, U251, and SH-SY5Y cells were cultured in DMEM/F12 containing 10% FBS, 62.5 µg/ml penicillin and 100 µg/ml streptomycin. Cell viability was assessed using a CCK-8 kit (Beyotime Biotechnology, Shanghai, China), and the results were expressed as the fold of control.
as §1

FOXO1 = test: Western blot of FOXO1 (p-FOXO1/FOXO1, total, cytoplasmic, nuclear) in hCMEC/D3 cells; assay type: cell-based, Homo sapiens; conditions: for FOXO1/Lamin B Relative Expression, Mean / FOXO1/Lamin B Relative Expression: Nucleus Protein
Procedure: as §1
(§2) Here, hCMEC/D3 cells were plated in the plates or culture dishes at 6 × 10^4 cells/cm^2 and transfected with 10 nM of negative control or human FOXO1, ETS1, and CDH5 siRNA (Tsingke Biotechnology, Beijing, China) for 12 hr using Lipofectamine 3000 (Invitrogen, Carlsbad, CA, USA) reagent according to the manufacturer’s instructions. Cells were then incubated with a medium containing GDNF for 72 hr.
The plasmids encoding FOXO1 (EX-Z7404-M02) were constructed by GeneCopoeia (Rockville, MD, USA). The hCMEC/D3 cells were plated in plates or dishes at 6 × 10^4 cells/cm^2. They were subsequently transfected with 1 µg of negative control or plasmids encoding FOXO1 6 hr using Lipofectamine 3000 reagent according to the manufacturer’s instructions. Transfected cells were then incubated with the medium containing GDNF for 72 hr.

ETS1 = test: Western blot of total and nuclear ETS1 in hCMEC/D3 cells; assay type: cell-based, Homo sapiens; conditions: for ETS1/β-actin Relative Expression, Mean / ETS1/Lamin B Relative Expression, Mean: group mean; for ETS1/β-actin Relative Expression / ETS1/Lamin B Relative Expression: individual replicates
Procedure: as §1, §2

[1] = Cytoplasm protein, Figure 4F, group mean, Con = 1.000
[2] = Cytoplasm protein, Figure 4F, individual replicates, relative to Con
[3] = Figure 4B, Cytoplasm Protein, group mean, Con = 1.000
[4] = Figure 4B, Cytoplasm Protein, individual replicates, relative to Con

B1: GDNF: glial cell line-derived neurotrophic factor, recombinant protein (R&D system) (protein, UniProt P39905 78-211, looked up)
Glial cell line-derived …: SPDKQMAVLPRRERNRQAAAANPENSRGKGRRGQRGKNRGCVLTAIHLNVTDLGLGYETKEELIFRYCSGSCDAAETTYDKILKNLSRNRRLVSDKVGQACCRPIAFDDDLSFLDDNLVYHILRKHSAKRCGCI
p-p38/p38; mean of 4
  p-p38/p38 Relative Expression Mean: 0.924
p-p38/p38; single replicates
  p-p38/p38 Relative Expression: 0.949 and 0.886 and 0.913 and 0.946
VE-cadherin; Con = 1.000 (Figure 2J)
  VE-cadherin/β-actin Relative Expression, Mean: 1.773
VE-cadherin; relative to Con, single replicate (Figure 2J)
  VE-cadherin/β-actin Relative Expression: 2.095 and 1.692 and 1.731 and 1.576
FOXO1; [1]
  FOXO1/GAPDH Relative Expression, Mean: 1.482
  p-FOXO1/GAPDH Relative Expression, Mean: 1.560
FOXO1; [2]
  FOXO1/GAPDH Relative Expression: 1.349 and 1.335 and 1.673 and 1.570
  p-FOXO1/GAPDH Relative Expression: 1.317 and 1.387 and 1.877 and 1.660
FOXO1; Figure 4A, group mean, Con = 1.000
  p-FOXO1/FOXO1 Relative Expression, Mean: 2.044
FOXO1; Figure 4A, individual replicates, relative to Con
  p-FOXO1/FOXO1 Relative Expression: 2.153 and 1.987 and 1.525 and 2.510
FOXO1; Figure 4A, total FOXO1, group mean, Con = 1.000
  FOXO1/β-actin Relative Expression, Mean: 0.802
FOXO1; Figure 4A, total FOXO1, individual replicates, relative to Con
  FOXO1/β-actin Relative Expression: 0.773 and 0.798 and 1.007 and 0.631
FOXO1; [3]
  FOXO1/GAPDH Relative Expression, Mean: 1.680
  p-FOXO1/GAPDH Relative Expression, Mean: 1.601
FOXO1; [4]
  FOXO1/GAPDH Relative Expression: 1.609 and 1.840 and 1.778 and 1.494
  p-FOXO1/GAPDH Relative Expression: 1.850 and 1.523 and 1.386 and 1.647
FOXO1; Figure 4B, group mean, Con = 1.000
  FOXO1/Lamin B Relative Expression, Mean: 0.556
FOXO1; Figure 4B, individual replicates, relative to Con
  FOXO1/Lamin B Relative Expression: 0.674 and 0.519 and 0.531 and 0.499
FOXO1; Figure 4F, group mean, Con = 1.000
  FOXO1/Lamin B Relative Expression, Mean: 0.751
FOXO1; Figure 4F, individual replicates, relative to Con
  FOXO1/Lamin B Relative Expression: 0.817 and 0.783 and 0.758 and 0.647
FOXO1; Whole cell lysate, Figure 4F, group mean, Con = 1.000
  p-FOXO1/FOXO1 Relative Expression, Mean: 1.362
FOXO1; Whole cell lysate, Figure 4F, individual replicates, relative to Con
  p-FOXO1/FOXO1 Relative Expression: 1.502 and 1.205 and 1.426 and 1.314
FOXO1; hCMEC/D3 cells, GDNF or US-CM
  FOXO1 phosphorylation (p-FOXO1): significantly enhanced
  levels of nuclear FOXO1: decreased
  levels of phosphorylated and unphosphorylated FOXO1 in the cytoplasm: increased
ETS1; Figure 5A, Con = 1.000
  ETS1/β-actin Relative Expression, Mean: 1.877
ETS1; Figure 5A, relative to Con
  ETS1/β-actin Relative Expression: 1.777 and 1.712 and 2.125 and 1.893
ETS1; Figure 5B, Con = 1.000
  ETS1/Lamin B Relative Expression, Mean: 1.560
ETS1; Figure 5B, relative to Con
  ETS1/Lamin B Relative Expression: 1.659 and 1.595 and 1.316 and 1.670
ETS1; Figure 5C, Con = 1.000, GDNF group of LY and U0 inhibitor experiment
  ETS1/β-actin Relative Expression, Mean: 1.287
ETS1; Figure 5C, relative to Con, GDNF group of LY and U0 inhibitor experiment
  ETS1/β-actin Relative Expression: 1.182 and 1.224 and 1.389 and 1.354
ETS1; Figure 5D, Con = 1.000
  ETS1/Lamin B Relative Expression, Mean: 2.084
ETS1; Figure 5D, relative to Con
  ETS1/Lamin B Relative Expression: 1.875 and 2.209 and 2.073 and 2.180
ETS1; Figure 5E, NC = 1.000
  ETS1/β-actin Relative Expression, Mean: 1.499
ETS1; Figure 5E, relative to NC
  ETS1/β-actin Relative Expression: 1.466 and 1.523 and 1.519 and 1.490
ETS1; Figure 5F, NC = 1.000
  ETS1/Lamin B Relative Expression, Mean: 1.528
ETS1; Figure 5F, relative to NC
  ETS1/Lamin B Relative Expression: 1.629 and 1.498 and 1.595 and 1.392
ETS1; hCMEC/D3 cells, US-CM or GDNF
  nuclear ETS1 expression: significantly increased
  total ETS1 expression: significantly increased
